Measurements taken from patent publication US7553630.
Values belong to the molecule of their own block, whether it stands above or below them.

Key:
[1] = test system: peptide 1 (19 kDa) from plasmin digestion of CHO-derived human MI
[2] = test system: peptide 3 (13.5 kDa) from plasmin digestion of CHO-derived human MI
[3] = target: type I collagenase in activated conditioned medium from TPA-treated rabbit synovial fibroblasts (rabbit) (UniProt P13943); assay: cell-based or functional assay
[4] = target: CHO cell-derived recombinant human metalloproteinase inhibitor (MI)
[5] = target: E. coli-derived recombinant human metalloproteinase inhibitor (MI)

peptide 3 (13.5 kDa) from plasmin digestion of CHO-derived human MI, sequence (chain, as listed by the source): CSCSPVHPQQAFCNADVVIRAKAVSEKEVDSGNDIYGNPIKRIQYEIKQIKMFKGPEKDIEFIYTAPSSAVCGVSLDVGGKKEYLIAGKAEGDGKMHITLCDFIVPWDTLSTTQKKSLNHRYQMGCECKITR

Molecule: gelatinase(s) in activated conditioned medium from TPA-treated rabbit synovial fibroblasts
SDS-gelatin PAGE of a plasmin digest of MI [1]: These peptides retained their anticollagenase activity as shown by the SDS-gelatin PAGE
SDS-gelatin PAGE of a plasmin digest of MI [2]: These peptides retained their anticollagenase activity as shown by the SDS-gelatin PAGE

Specific activity (units/mg), radiolabeled collagen film collagenase inhibition assay [3]: 1780 units/mg
Molecule: bovine peak II-derived metalloproteinase inhibitor (from UniProt P20414 24-207)

B1: human plasmin (protein)
chain: KVYLSECKTGNGKNYRGTMSKTKNGITCQKWSSTSPHRPRFSPATHPSEGLEENYCRNPDNDPQGPWCYTTDPEKRYDYCDILECEEECMHCSGENYDGKISKTMSGLECQAWDSQSPHAHGYIPSKFPNKNLKKNYCRNPDRELRPWCFTTDPNKRWELCDIPRCTTPPPSSGPTYQCLKGTGENYRGNVAVTVSGHTCQHWSAQTPHTHNRTPENFPCKNLDENYCRNPDGKRAPWCHTTNSQVRWEYCKIPSCDSSPVSTEQLAPTAPPELTPVVQDCYHGDGQSYRGTSSTTTTGKKCQSWSSMTPHRHQKTPENYPNAGLTMNYCRNPDADKGPWCFTTDPSVRWEYCNLKKCSGTEASVVAPPPVVLLPDVETPSEEDCMFGNGKGYRGKRATTVTGTPCQDWAAQEPHRHSIFTPETNPRAGLEKNYCRNPDGDVGGPWCYTTNPRKLYDYCDVPQCAAPSFDCGKPQVEPKKCPGRVVGGCVAHPHSWPWQVSLRTRFGMHFCGGTLISPEWVLTAAHCLEKSPRPSSYKVILGAHQEVNLEPHVQEIEVSRLFLEPTRKDIALLKLSSPAVITDKVIPACLPSPNYVVADRTECFITGWGETQGTFGAGLLKEAQLPVIENKVCNRYEFLNGRVQSTELCAGHLAGGTDSCQGDSGGPLVCFEKDKYILQGVTSWGLGCARPNKPGVYVRVSRFVTWIEGVMRNN
plasmin conversion of the 52-kDa proenzyme to the 46-kDa intermediate (SDS-PAGE) [4]: The addition of MI had no effect on the conversion of the 52-kDa proenzyme to the 46-kDa intermediate (lane 4)

B2: type I collagenase in activated conditioned medium from TPA-treated rabbit synovial fibroblasts (protein)
chain: FVLTPGNPRWEQTHLTYRIENYTPDLSRADVDNAIEKAFQLWSNVTPLTFTKVSKGQADIMISFVRGDHRDNSPFDGPEGQLAHAFQPGLGIGGDVHFDEDDRWTKDFRNYNLYRVAAHELGHSLGLSHSTDIGALMYPNYMFSGDVQLAQDDIDGIQAIYGPSQNPSQPVGPQTPKVCDSKLTFDAITTIRGEIMFFKDRFYMRANPYYSEVELNFISVFWPHLPNGLQAAYEVAHRDEILFFKGNKYWTVQGQNELPGYPKDIHSSFGFPRSVNHIDAAVSEEDTGKTYFFVANKYWRYDEYKRSMDAGYPKMIEYDFPGIGNKVDAVFKKDGFFYFFHGTRQYKFDPKTKRILTLQKANSWFNCRKN
SDS-PAGE and autoradiography of specific collagen cleavage; MI at about 2 µg/ml [5]: also inhibited the specific collagen cleavage characteristic of mammalian collagenases

B3: rabbit fibroblast interstitial collagenase (42-kDa activated enzyme, APMA-activated) (protein)
chain: B2 chain
SDS-PAGE and autoradiography of 14C type I collagen cleavage products; 4.6 pmol MI, 2.1 pmol collagenase [4]: The initial cleavage of the collagen as well as its further degradation were completely blocked by recombinant human MI.

B4: plasmin-treated rabbit fibroblast interstitial procollagenase (46-kDa intermediate) (protein)
chain: GNGLAVEKLKQMQEFFGLKVTGKPDAETLKMMKQPRCGVPDVAQFVLTPGNPRWEQTHLTYRIENYTPDLSRADVDNAIEKAFQLWSNVTPLTFTKVSKGQADIMISFVRGDHRDNSPFDGPEGQLAHAFQPGLGIGGDVHFDEDDRWTKDFRNYNLYRVAAHELGHSLGLSHSTDIGALMYPNYMFSGDVQLAQDDIDGIQAIYGPSQNPSQPVGPQTPKVCDSKLTFDAITTIRGEIMFFKDRFYMRANPYYSEVELNFISVFWPHLPNGLQAAYEVAHRDEILFFKGNKYWTVQGQNELPGYPKDIHSSFGFPRSVNHIDAAVSEEDTGKTYFFVANKYWRYDEYKRSMDAGYPKMIEYDFPGIGNKVDAVFKKDGFFYFFHGTRQYKFDPKTKRILTLQKANSWFNCRKN
conversion of the 46-kDa intermediate to the 42-kDa active enzyme at 37° C. (SDS-PAGE); 27 pmol MI, 16 pmol procollagenase [4]: the conversion of the 46-kDa intermediate to the 42-kDa active enzyme which should have occurred at 37 °C was completely blocked by MI
